Laboratory results from paper PMC4838357.

Columns and labels:
Assay in all cases: MITOMI
Zif268 I28A = Zif268 I28A (mouse, UniProt P08046 333-421, I359A)
Zif268 R14A = Zif268 R14A (mouse, UniProt P08046 333-421, R345A)
Zif268 R70A = Zif268 R70A (mouse, UniProt P08046 333-421, R401A)

Measured: binding result

B1: target_268wt (Zif268 consensus) (dsDNA)
DNA 1: GGCCAATTAGCGTGGGCGTTTTCCGGCGGTATGAC
DNA 2: GTCATACCGCCGGAAAACGCCCACGCTAATTGGCC
binds: Zif268 I28A | Zif268 R14A | Zif268 R70A
